Reference: PMC4808650
Read-outs that look alike come from different tables or passages of the source.

Assays:
[1] = molecular target: Chlamydomonas outer arm axonemal dynein, α and β HC complex from strain oda2-t-lc2-bccp (Chlamydomonas reinhardtii) (UniProt Q39565)
[2] = molecular target: Chlamydomonas outer arm axonemal dynein, α and β HC complex from strain oda2-t-lc2-bccp (Chlamydomonas reinhardtii) (UniProt Q39565); remark: listed apart in the source

Sequence of UniProt Q39565 (Q39565 whole entry, looked up, one chain of several): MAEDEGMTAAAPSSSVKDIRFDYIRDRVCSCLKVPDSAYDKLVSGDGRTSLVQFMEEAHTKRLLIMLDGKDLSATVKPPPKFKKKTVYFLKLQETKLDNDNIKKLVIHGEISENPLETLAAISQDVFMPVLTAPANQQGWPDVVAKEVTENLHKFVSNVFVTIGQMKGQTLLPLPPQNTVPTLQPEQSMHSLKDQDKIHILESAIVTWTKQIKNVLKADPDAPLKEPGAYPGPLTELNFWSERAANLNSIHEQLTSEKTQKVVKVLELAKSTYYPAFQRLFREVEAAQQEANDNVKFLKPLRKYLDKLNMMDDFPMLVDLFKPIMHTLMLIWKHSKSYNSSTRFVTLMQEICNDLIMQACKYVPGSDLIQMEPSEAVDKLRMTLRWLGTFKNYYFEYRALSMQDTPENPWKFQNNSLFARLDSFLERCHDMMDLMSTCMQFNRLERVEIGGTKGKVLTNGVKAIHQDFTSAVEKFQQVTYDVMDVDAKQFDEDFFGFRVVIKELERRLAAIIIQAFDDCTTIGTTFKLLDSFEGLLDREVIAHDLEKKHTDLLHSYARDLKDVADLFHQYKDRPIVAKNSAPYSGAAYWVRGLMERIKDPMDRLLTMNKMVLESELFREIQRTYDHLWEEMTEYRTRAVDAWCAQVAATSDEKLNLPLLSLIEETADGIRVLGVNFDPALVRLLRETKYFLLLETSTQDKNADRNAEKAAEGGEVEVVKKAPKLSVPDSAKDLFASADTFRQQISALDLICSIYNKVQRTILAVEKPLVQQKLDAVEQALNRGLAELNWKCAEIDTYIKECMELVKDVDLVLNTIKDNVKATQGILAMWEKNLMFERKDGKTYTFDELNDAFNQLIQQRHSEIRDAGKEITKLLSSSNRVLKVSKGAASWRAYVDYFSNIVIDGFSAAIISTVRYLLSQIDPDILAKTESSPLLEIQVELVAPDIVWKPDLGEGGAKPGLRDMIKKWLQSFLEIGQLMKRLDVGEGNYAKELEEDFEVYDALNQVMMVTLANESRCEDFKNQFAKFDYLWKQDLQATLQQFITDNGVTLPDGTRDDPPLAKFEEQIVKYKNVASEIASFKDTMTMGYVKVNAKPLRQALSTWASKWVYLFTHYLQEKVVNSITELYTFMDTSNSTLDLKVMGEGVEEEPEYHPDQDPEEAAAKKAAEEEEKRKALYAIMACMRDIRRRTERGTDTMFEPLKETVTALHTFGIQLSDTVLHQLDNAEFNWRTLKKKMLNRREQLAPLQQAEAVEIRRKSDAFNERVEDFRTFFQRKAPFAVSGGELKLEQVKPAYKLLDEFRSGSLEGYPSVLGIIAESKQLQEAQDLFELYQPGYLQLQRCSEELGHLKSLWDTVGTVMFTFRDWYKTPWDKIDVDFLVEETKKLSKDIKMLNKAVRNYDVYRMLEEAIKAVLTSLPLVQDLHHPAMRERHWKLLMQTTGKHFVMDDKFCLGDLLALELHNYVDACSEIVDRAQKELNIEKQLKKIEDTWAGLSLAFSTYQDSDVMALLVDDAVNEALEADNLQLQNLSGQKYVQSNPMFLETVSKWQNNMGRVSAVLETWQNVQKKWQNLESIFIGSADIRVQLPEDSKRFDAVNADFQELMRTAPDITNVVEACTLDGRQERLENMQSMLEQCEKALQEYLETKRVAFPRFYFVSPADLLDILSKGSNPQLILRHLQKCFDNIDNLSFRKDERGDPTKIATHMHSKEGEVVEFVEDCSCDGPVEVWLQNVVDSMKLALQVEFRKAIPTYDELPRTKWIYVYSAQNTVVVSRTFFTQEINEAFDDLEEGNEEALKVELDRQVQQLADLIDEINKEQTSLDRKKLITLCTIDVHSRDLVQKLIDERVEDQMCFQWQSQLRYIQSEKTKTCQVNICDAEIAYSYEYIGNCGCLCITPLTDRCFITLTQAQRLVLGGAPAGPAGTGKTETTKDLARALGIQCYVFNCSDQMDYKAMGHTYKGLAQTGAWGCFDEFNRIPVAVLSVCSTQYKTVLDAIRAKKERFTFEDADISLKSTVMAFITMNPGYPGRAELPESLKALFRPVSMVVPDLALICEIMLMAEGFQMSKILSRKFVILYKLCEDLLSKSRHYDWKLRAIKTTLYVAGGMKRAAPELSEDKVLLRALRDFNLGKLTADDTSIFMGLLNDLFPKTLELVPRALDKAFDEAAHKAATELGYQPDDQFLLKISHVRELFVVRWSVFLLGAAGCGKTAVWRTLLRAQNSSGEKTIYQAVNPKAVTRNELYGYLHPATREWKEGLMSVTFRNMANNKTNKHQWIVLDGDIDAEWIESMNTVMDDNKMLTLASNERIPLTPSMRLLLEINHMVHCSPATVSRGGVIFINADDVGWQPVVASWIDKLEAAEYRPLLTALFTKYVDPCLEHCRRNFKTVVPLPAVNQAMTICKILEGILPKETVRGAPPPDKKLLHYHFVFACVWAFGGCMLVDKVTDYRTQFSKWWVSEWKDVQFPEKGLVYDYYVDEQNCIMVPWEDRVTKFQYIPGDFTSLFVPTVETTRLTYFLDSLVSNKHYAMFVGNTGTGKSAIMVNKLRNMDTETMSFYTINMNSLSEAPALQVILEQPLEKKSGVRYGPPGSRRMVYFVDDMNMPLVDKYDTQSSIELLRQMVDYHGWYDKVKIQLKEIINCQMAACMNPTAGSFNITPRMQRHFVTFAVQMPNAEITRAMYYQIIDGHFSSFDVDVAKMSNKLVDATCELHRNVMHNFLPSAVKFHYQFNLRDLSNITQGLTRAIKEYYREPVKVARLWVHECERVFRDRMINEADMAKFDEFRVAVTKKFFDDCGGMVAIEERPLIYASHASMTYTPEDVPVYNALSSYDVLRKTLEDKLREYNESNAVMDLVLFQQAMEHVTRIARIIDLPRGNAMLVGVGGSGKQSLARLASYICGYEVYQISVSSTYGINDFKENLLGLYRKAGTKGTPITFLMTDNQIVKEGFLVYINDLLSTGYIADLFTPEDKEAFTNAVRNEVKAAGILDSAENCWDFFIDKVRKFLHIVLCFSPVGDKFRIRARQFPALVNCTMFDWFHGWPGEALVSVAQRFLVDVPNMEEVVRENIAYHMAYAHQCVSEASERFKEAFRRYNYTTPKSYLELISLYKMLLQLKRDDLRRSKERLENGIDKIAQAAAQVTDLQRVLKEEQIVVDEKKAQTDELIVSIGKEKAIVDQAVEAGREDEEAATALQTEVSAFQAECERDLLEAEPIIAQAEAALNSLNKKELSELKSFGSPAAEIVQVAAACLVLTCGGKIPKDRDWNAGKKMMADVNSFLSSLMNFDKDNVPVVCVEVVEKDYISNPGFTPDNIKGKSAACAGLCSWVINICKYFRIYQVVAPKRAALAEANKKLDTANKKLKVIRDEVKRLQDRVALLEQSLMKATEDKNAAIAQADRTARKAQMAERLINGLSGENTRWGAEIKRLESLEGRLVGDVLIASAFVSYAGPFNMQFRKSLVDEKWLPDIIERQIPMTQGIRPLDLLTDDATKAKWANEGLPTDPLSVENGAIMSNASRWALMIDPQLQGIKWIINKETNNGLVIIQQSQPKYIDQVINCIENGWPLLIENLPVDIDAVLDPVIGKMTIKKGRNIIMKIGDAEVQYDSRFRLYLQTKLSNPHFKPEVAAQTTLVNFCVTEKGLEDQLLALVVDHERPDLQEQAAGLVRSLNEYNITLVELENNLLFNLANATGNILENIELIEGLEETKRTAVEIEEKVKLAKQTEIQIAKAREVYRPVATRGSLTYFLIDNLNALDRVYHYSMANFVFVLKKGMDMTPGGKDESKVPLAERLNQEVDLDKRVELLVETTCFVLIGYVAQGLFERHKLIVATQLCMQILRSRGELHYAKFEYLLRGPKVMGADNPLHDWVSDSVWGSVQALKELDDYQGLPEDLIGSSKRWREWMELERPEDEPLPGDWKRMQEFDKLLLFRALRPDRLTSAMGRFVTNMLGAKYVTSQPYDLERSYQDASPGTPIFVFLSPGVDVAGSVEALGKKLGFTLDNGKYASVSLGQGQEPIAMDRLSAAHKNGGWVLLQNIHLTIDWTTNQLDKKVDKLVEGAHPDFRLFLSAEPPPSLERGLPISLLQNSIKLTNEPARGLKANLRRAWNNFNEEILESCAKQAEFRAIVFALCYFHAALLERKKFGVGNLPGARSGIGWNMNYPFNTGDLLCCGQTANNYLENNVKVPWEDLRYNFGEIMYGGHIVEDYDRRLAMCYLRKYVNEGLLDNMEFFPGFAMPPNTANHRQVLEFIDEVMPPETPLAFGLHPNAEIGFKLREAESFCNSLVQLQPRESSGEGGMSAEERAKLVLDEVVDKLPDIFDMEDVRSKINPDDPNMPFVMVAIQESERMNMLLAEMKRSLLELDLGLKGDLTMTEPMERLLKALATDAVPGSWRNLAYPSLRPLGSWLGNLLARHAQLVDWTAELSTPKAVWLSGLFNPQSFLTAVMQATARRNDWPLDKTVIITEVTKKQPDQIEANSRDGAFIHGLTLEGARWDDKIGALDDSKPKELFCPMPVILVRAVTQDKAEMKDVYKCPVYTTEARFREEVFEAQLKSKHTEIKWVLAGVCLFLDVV

Substance: Chlamydomonas axonemal microtubules from SIRT2-deacetylated tubulin (complex)
- L0 of microtubule gliding (microtubule length at vmax/2) [1]: 0.39 μm
- vmax of microtubule gliding on dynein-coated slides (fit to Eq. 1) [1]: 1.66 μm/s

Substance: Chlamydomonas axonemal microtubules, untreated (complex)
- L0 of microtubule gliding (microtubule length at vmax/2) [1]: 0.43 μm
- vmax of microtubule gliding on dynein-coated slides (fit to Eq. 1) [1]: 2.09 μm/s

Substance: porcine brain microtubules, untreated (α-β-tubulin microtubules) (from UniProt P02550 1-451; P02554 1-445) (complex)
- vmax of microtubule gliding on dynein-coated slides (fit to Eq. 1) [2]: 1.7 μm/s

Substance: α-βs-tubulin porcine microtubules (10 μg/mL subtilisin) (from UniProt P02550 1-451) (complex)
- vmax of microtubule gliding on dynein-coated slides (fit to Eq. 1) [2]: 1.93 μm/s

Substance: αs-βs-tubulin porcine microtubules (200 μg/mL subtilisin) (complex)
- vmax of microtubule gliding on dynein-coated slides (fit to Eq. 1) [2]: 2.27 μm/s
